From the nanobody polyreactivity screen of Harvey et al. (2022)

Test: yeast display, Sf9 membrane polyspecificity reagent, FACS + sequencing; frameworks hold sequencing errors
In short: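 Polyreactivity labels are assigned by the sorting gate from which each nanobody was recovered. The gates were low and high (top ~1%), set on anti-HA fluorescence for expression and streptavidin fluorescence for reagent binding. Before sorting, galactose-induced (36–48 hours) yeast display cells were stained for 1 hour at 4 °C with 10% biotinylated, detergent-solubilized Sf9 membrane reagent.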

Sequence: QVQLVESGGGLVQAGGSLRLTCAASGFIFGTYAMGWYRLSPGKERELVAAISSGGSTYYAYSVKGRFTISRDNAKYTVYLQMNSLKPEDTAVYYCAKEGGTYRIFNYWGQGTQVTLSS
- polyreactivity (PSR sort gate): low polyreactivity

Sequence: QVQLQESGGGLVQVGGSLRLSCAASGTIIIYGFLGWNRQAPGKERELVASINLGGITNYADSVKGRFTISRDNAKNTVYLQMISLKPEDTAVYYCAAYVVTGQNYGYWGQGTQVTVSS
- polyreactivity (PSR sort gate): low polyreactivity

Sequence: QVQLVESGGGLVQAGGSLRLSCAASGFIFYLYAMGWYRQAPGTERELVAAISSSGGGTYYADSVKGRFTISRDNAKNTVYLQMNSLKPEDTAVYYCNVPLSYRSEYDYWGQGTQVTVSS
- polyreactivity (PSR sort gate): high polyreactivity

Sequence: QVQLVESGGGLVQAGGSLRLSCAASGSIFVYYAMGWYRQAPGKERELVATITNDGSTYADSVKGRFTISRDNAKNTVYLQMNSLKPEDTAVYYCAAKIPSDRTIYDYWGQGTQVTVSS
- polyreactivity (PSR sort gate): low polyreactivity

Sequence: QVQLVESGGGIVQAGGSLRLSCAASGSIFQWYAMGWYRQAPGKERELVAAISFNGGITYYADSVKGRFTISRDNANNTVYLQMNSLKPEDTAVYYCATEYRSASGDYDYWGQGTQVTVSS
- polyreactivity (PSR sort gate): low polyreactivity

Sequence: QVQLVESGGGLVQAGGSLRLSCAASGFIFGSYTMGGYRQAPGTERELVAVITCSGSSTYYADSVKGRFTISRDNAKNTVYLQMNSLKPADTAVYYCNAVKFGGYDYWGQGTQVTVSS
- polyreactivity (PSR sort gate): high polyreactivity

Sequence: QVQLVESGGGLVQAGCSLRLSCAASGRTFITNAMGWYRQAPGKVRELVAAISSGTGGRTYYADSVKGRFTISRDKAKNTVYFQMNSRKPEDTAVYYCAARSTKYYPYGYWGQGTQVTVTS
- polyreactivity (PSR sort gate): high polyreactivity

Sequence: QVQLVESGGGLVQAGGSLRLSCAASGTIFQQYAMGWYRQAPGKERELVAAISYSGGTTYYADSVKGRFTISRDNAKNTDYLEMNSLKPEDTAVYYCAAYYPSGSYDYYWGQGTQVTVSS
- polyreactivity (PSR sort gate): low polyreactivity

Sequence: QVQLVESGGGLVQAGGSLRLSCAASGFTFGTYDMGWYRQAPGKERELVAAISTSGGSTYYADSVKGRFTISRDNAKNTVYLQMNSLKPEDTAVYYCAARIVYYGGYGYWGQGTQVTVSS
- polyreactivity (PSR sort gate): high polyreactivity

Sequence: QVQLVESGGGLVHAGGSLRLSCAASGSIFEGNGMGWYRQAPGKERELVAAITFRSGSTYNADSVKGRFTISRDNEKNTVYLPMNSLKPEDTAVYYCAADEYYQVSAYDYWGQGTQVTVSS
- polyreactivity (PSR sort gate): low polyreactivity

Sequence: QVQLVESGGGLVQAGGSLRISCAASGSTSLYYAMGWYSQAPGKEREFVAANTWSGGSTYYADSVKGRFTISRDNAKNSVYLQMNSLQPVDTAVDYWAARSYGYSAGYYWRQGTQVTVSS
- polyreactivity (PSR sort gate): high polyreactivity

Sequence: QVQLVESGGGLVQAGGILRLSCAASGSTFAANAMGWYRQAPGKERELVAAITSSGGSTYYADSVKGRFTISRDNAKNTVYLQMNSLKPEDTAVYYCNKDIERYVRIYYSWGQGTQVTVSS
- polyreactivity (PSR sort gate): low polyreactivity

Sequence: QVQLVESGGGLVQAGGSLRLSCAASGSTFLYVMGWYRQAPGKERELVAAISESGGSTYYADSVKGRFTISRDNAKNTLYLQMNSLKPEDTAVYYCAADLPTGLQYRYYRVDYWGQGTQVTVSS
- polyreactivity (PSR sort gate): low polyreactivity

Sequence: QVQLVESGGGLVQAGGSLRLSCAASGSIFIYYAMGWYRQAPGKEREFVADISYSGDSTYYADSVKGRFTISRDNAKNTVYFQMNSLKPEDTAVYYCAADTWYDAGVYPYDYWGQGTQVTVSS
- polyreactivity (PSR sort gate): high polyreactivity

Sequence: QVQLVESGGGLVQAGGSLRLSCAASGSTYRLYAMGWYRQAPGKERELVAAITWRGTTYYADSVKGRFTISRDNAKNTVYLQMNSLKPEDTAVYYCAARAPVAGYKYRYDYWGQGTQVTVSS
- polyreactivity (PSR sort gate): high polyreactivity

Sequence: QVQLVESGGGLVQAGGSLRLSCAASGSIFRPYAMGWYRQAPGKERELVAAISYRGGSTYYADSVKGRFTISRDNAKNTVYLQMNSLKPEDTAVYYCAADSREEGDYWGQGTQVTVSS
- polyreactivity (PSR sort gate): low polyreactivity

Sequence: QVQLGESGGGLVQAGGSLRLSCAASGSIFRRYARGWYRQAPGKERELVAAISSSGGRTYYADSVKGRFTISRDNAKNTVYLQMNSLKPEETAVYYCAKDTYGFAANRPAGDGYWGQGTQVTVSS
- polyreactivity (PSR sort gate): high polyreactivity

Sequence: QVQLVESGGGLVQAGGSLRLSCASSGRIFYGYAMVWYRQAPGKERELVAAIRWYGGNTYYADSVKGRFTISRDNAKNTVYLQMNSLKPEDTAVYYCAARAYYARFVMGYWGQGTQVSVSS
- polyreactivity (PSR sort gate): high polyreactivity

Sequence: QVQLVESGGGLVQAGGSLRLSCAASGFTFVAYAMGWYRQAPGKERELVAAITWSGSRTYYADSVKGRFTISRDNAKNTVYLQMNSLKPEDTAVYYCAAGKTEGHYGYWGQGTQVTVSS
- polyreactivity (PSR sort gate): high polyreactivity

Sequence: QVQLVESGGGLVQAGGSLRLSCAASGRIFASYAMGWYRQAPGKERELVAAIDRTDSTYYADSVKGRFTISRDNAKNTVYLQMNSLKPEDTAVYYCAADEYYTFSSFELRRMDYWGQGTQVTVSS
- polyreactivity (PSR sort gate): low polyreactivity

Sequence: QVQLVESGGRLGQAGGSLRLRCAASGYNFGTYDMGWYRPAPGKERELVAAISIGGSTNYADSVKGRFTISRDNAKNTVYLQMNSLKPEDTAVYYCAAEVNVGTLLLSVIVEDGDYWGQGTEVTVSS
- polyreactivity (PSR sort gate): low polyreactivity

Sequence: QGQLGESGGGLVQAGGSLRLSCAATGFTSYVYAMGWYRQAPGKERELVAAISLRTASTYYADSVKGRFTISRDNAKNTVYLQMTSLKPEDTAVYDCALGRETYRYAYRLNYWGQGTQVTLSS
- polyreactivity (PSR sort gate): high polyreactivity

Sequence: QVQLGESGGGLVQAGGSLRLSCAASGIIFYRYAMGWYRQAPGKERELVAAITWSGVSTSYADSVKGRFTISRDNAKNTVYLQMNSLKQEDTAVYYCNKDPGTLYGDMDSWGQGTQVTVSS
- polyreactivity (PSR sort gate): low polyreactivity

Sequence: QVQLVESGGGLVQAGGSLRLSCAASGSTFTRYGMGRYRQAPGKERELVAAITTSGSSTYYADSVKGRFTISRDNAKNTVYLQMNSLKPEDTAVYYCAADWSSWGFDYWGQGTQVTVSS
- polyreactivity (PSR sort gate): low polyreactivity

Sequence: QVQLVESGGGLVQAGGSLRLSCAASGSIFSHNAMGWYRQAPGKERELVAAISWSAASTYYADSVKGRFTISRDNAKNTVYLQMNSLKPEDTAVYYCAAVPYSSTYRYDYWGQGTQVTVSS
- polyreactivity (PSR sort gate): low polyreactivity

Sequence: QVQLVESGGGLVQAGGSLRLSCAASGITFERNGMGWYRQAPGKERELVAAIRSGGSTYYADSVKGRFTISRDNAKNTVYLQMNSLKPEDTAVYYCNAPYGRQGYDYWGQGTQVTVSS
- polyreactivity (PSR sort gate): low polyreactivity

Sequence: QVQLVESGGGLVQAGGSIRLSCAASGRIFKAYAMGWYRQAPGKERELVAAITRGGRTKYADSVKGRFTLSRDNAKNTVYLQMNSLKPEYTAVYYCNPPRGVLYDYWGHGTQVTVSS
- polyreactivity (PSR sort gate): high polyreactivity

Sequence: QVQLVESGGGLVQAGGSLRLSCAASGLTFYQNAMGWYRQAPGKERELVAAISSIGGTYYADSVKGRFTISRDNAKNTVYLQMNSLKPEDTAVYYCAKRSRYPYYPYGYWGQGTQVTVSS
- polyreactivity (PSR sort gate): high polyreactivity

Sequence: QVQLVESGGGLVQAGGSLRLSCAASGSIFYWNAMGWYRQAPGKERELVAAISYNGGSTYYADSVKGRFTISRDNAKNTVYLQMNSLKPEDTAVYYCAADNYYYGYEYWGQGTQVTVSS
- polyreactivity (PSR sort gate): high polyreactivity

Sequence: QVQLVESGGGLVQAGGSLRLSCAASGSIFGVNAMGLYRQAPGKERELVASISLSDDRTYYADSVKGRFTISRDNAKNTVYLQMNSLKPEDTAVYYCARRILWYWDVYPSLAEYDYWGQGTQVTVSS
- polyreactivity (PSR sort gate): low polyreactivity

Sequence: QVQLVESGGGLVQAGGSLRLSCAASGRTFTVYAMGWYRQAPGKEREFVATISWSGGRTYYADSVKGRFTISRDNAKNTVYLQMNSLKPEDTAVYYCSAQEYTTRFYFNRDYWGQGTQVTVSS
- polyreactivity (PSR sort gate): low polyreactivity

Sequence: QVQLVESGGGLVQAGGSLRLSSAASGSTFYWYTMGWYRQAPGKERELVARISKRGGSTYYADSVKGRFTISRDNAKNTVYLQMNSLKPEDTAVYYCNATSRTVGFGYWGQGTQVTVSS
- polyreactivity (PSR sort gate): high polyreactivity

Sequence: QLQLVESGGGLVQAGGSLRLSCAASGFIFYYNVMGWYRQAPGKERELVAAIRYRGTITYYADSVKGRFTISRDIAKNTVYLQMNSLKPEDTAVYYCARRQRNYYRSSPGGDYWGQGTQVTVSS
- polyreactivity (PSR sort gate): low polyreactivity

Sequence: QVQLVESCGGLVQAGGSLRLSCAASGHIFFYYTMGWYRQAPGKQRELVAGITIGGSTNYADSVKGRFTISRDNAKNTVYLQMNSLKPEDTAVYYCNVVKYVYIYSYWEYYYWGQGTQVTVSS
- polyreactivity (PSR sort gate): low polyreactivity

Sequence: KVLLVESGGGLVQAGGSLRLSCAASGSIFHGNAMGWYRQAPGKERELVATISSGGSTYYADSVKGLFTISRDNAKNTVDLQMNSLKPEDTAVYYCAAERFWPYKSYYWGQGTQVTVSS
- polyreactivity (PSR sort gate): low polyreactivity

Sequence: QVQLVESGGGLVQAGGSLRLSCAASGRIFGRNAMGWYRPAPGKERELVAAITSGGSTNYADSVKGRFTISRDNAKNTVYLQMNSLKPEDAAVYYCAARRVIYVRLDYDYWGQGTQVTVSS
- polyreactivity (PSR sort gate): high polyreactivity

Sequence: QVQLVESGGGLVQAGGSLRLSCAASGLTITQYVMGWYRQAPGKERDLDAAISWGGTSTYYADSVKGRFTISRDHAKNTVYLQMNSLKPEDTAVYYCNARSVYLSFWGFDYWGQGTQVTVSS
- polyreactivity (PSR sort gate): low polyreactivity

Sequence: QVQLVESGGGLVQAGGSLRLSCAASGITINFYAMGWYRQAPGKERELVAAITQSGGSTYYADSVKGRFTISRDNAKNTVYLQMNRLKPEDTAVYYCAAARTGHMYYWGQGTQVTVSS
- polyreactivity (PSR sort gate): high polyreactivity

Sequence: QVQIVASWGGLVQAGGSLRLSCAATGRIFEINAMGWYRQAPGKERELVAAITRSGGSTYYADSVKGRFTISRDYAKNTVYVQMNSLKPEDTAVYYCAARGRYWYSRYYSWGQGTQVTVSA
- polyreactivity (PSR sort gate): high polyreactivity

Sequence: QVQLVESGGGLVQAGGSLRLSCAASGNIFRSYMGWYRQAPGKEREFVAGITWRGGNTYYADSVKGRFTISRDNAKNTVYLQMNSLKPEDTAVYYCAAEIFVYYRWYDYWGQGTQVTVSS
- polyreactivity (PSR sort gate): high polyreactivity

Sequence: QVQLVQSGGGLVQAGGRLSLSCAASGYIFFTNAMGWYRQAPGKERELVAAISSAGRTKYADSVKGRFTISRDNAKNTVYIQMNSLIPEDTAVYYCNKSFYYRWGTGYDYWGQGTQVTVSS
- polyreactivity (PSR sort gate): low polyreactivity

Sequence: QVQLVESGGGLVQGGGSLRLSCAASGRIFGHYVMGSYRQAPGKERELVAAISYSGGSTYYADSVKGRFTISRDNAKNTVYLQMNSLKPEDTAVFYCAARVTQDSPYGAYYYWGQGTQVTVSS
- polyreactivity (PSR sort gate): high polyreactivity

Sequence: QVQLVESGGGLVQAGGSLRLSCAASGFTFRANGMGWYRQATGKERELVATITSGGTTNYADSVKGRFTISRDNAKNTVYLQMNSLKPEDTAVYYCAKRFGPAYFRLYDYWGQGTQVTVSS
- polyreactivity (PSR sort gate): low polyreactivity
